We go through nine molecules from article PMC9368738, “The Mechanistic Understanding of RAD51 Defibrillation: A Critical Step in BRCA2-Mediated DNA Repair by Homologous Recombination” (International Journal of Molecular Sciences, 2022).

Where “and” joins values, the source holds several entries; their conditions need not be identical. Identical values can stand only once.

For test [1], the system named is RAD51 foci in BxPC-3 cell nuclei. Briefly: Immunofluorescence detection of RAD51 nuclear foci. In kind it is cell-based. Particulars: 1.5 h. The method, then:
General cell culture. BxPC-3 cells (purchased from ATCC) were grown in RPMI 1640 containing 10% FBS, 100 U/mL penicillin–streptomycin, and 2 mM glutamine. All media and supplements were from Sigma-Aldrich. Cultures were routinely tested for mycoplasma contamination. Immunofluorescence. Immunofluorescence was used to study RAD51 nuclear translocation. To visualize RAD51 in cell nuclei, BxPC-3 cells were seeded on glass coverslips placed in a 6-well culture plate (2 × 10^5 cells/well) and allowed to adhere for 24 h. […] The medium was then removed to eliminate the chemotherapeutic agents, and cells were maintained in the presence of 5 µM BRC4myr for an additional 4 h. After this time, cells were fixed with PBS containing PFA 4% for 15 min, permeabilized in 70% ethanol, and then washed twice in PBS. […] After washing, coverslips were incubated in secondary anti-rabbit rhodamine-labelled antibody (Novus Biologicals, 1:1000 in 1% BSA/PBS) for 30 min at 37 °C, washed, air-dried, and mounted in a solution 2 µg/mL DAPI in DABCO. Images were acquired using a Nikon fluorescent microscope equipped with filters for TRITC and DAPI. The percentage of cells bearing nuclear foci was estimated by analyzing approximately 300 cells for each treatment sample.

The target in a further test is RAD51 (Homo sapiens) (UniProt Q06609). Description: GST pull-down. Particulars: cited from earlier work.
Another test relates to RAD51. The settings on record: pull-down assays; cited from earlier work. The source says:
This information comes from the only 3D structure of the RAD51-BRC4 interaction (PBD 1NOW).

Test [2] concerns the target full-length recombinant human RAD51 (N-terminal 6xHis-tagged) (human) (UniProt Q06609).
Test [3] deals with T1, RAD51 fibrils (full-length recombinant human RAD51) (Homo sapiens, UniProt Q06609).
T1 construct: The full-length human RAD51 was expressed in E. coli Rosetta2(DE3) pLysS cells; made in house; host or cells: E. coli Rosetta2(DE3) pLysS, pET15b plasmid
T1 sequence (Q06609 1-339): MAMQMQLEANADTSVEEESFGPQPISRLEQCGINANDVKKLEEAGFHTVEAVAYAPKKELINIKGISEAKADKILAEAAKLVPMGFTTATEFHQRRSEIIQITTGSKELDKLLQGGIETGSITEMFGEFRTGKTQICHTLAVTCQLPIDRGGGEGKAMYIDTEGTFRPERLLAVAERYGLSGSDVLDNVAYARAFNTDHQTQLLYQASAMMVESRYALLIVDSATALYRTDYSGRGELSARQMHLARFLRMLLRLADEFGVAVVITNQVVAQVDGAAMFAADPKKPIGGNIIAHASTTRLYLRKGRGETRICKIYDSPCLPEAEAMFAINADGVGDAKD
Description: Static light scattering (SLS / CG-MALS) of BRC4-induced RAD51 defibrillation. Particulars: RAD51 6.25 µM = 0.25 mg/mL; very significant stoichiometric excesses of peptide. The format is biochemical.
Description: Static light scattering (SLS) and composition-gradient multi-angle static light scattering (CG-MALS). Measurements were carried out using a Calypso automated delivery system as a mixing unit, connected to a Dawn Heleos II multi-angle light scattering (MALS) and a T-rEX refractive index (RI) detector, both operating at 660 nm (all instruments produced by Wyatt Technology, Santa Barbara, CA, USA). […] Injection volume and flow rate were fixed at 0.8 mL and 1 mL/min, respectively. A delay time of 180 s was set between each injection.

In test [4] the target is T2, 6xHis-RAD51 (full-length recombinant human RAD51) (Homo sapiens, UniProt Q06609).
T2 construct: The full-length human RAD51 was expressed in E. coli Rosetta2(DE3) pLysS cells; made in house; host or cells: E. coli Rosetta2(DE3) pLysS, pET15b plasmid
T2 sequence (Q06609 1-339): T1 sequence (Q06609 1-339)
Briefly: Microscale thermophoresis (MST). The format is binding. Particulars: highest concentration tested 400 μM; data not shown. In general terms: MST reads how a fluorescent partner responds to local heating, with and without ligand.

The test system of a further test is RAD51 fibrils. Description: Negative staining TEM of RAD51 fibrils. In kind it is biochemical, human. The settings on record: large stoichiometric excess of peptide; RAD51 0.1 mg/mL (2.5 µM); incubation 2 h at 4 °C.
The target of test [5] is T3, full-length recombinant human RAD51 (N-terminal 6xHis-tagged) (human), Q06609.
T3 chain: T1 sequence (Q06609 1-339)
Briefly: static light scattering (CG-MALS, Zimm plots); RAD51 alone at five concentrations between 0.1 and 0.35 mg/mL (2.5-8.75 µM); 20 mM HEPES pH 8, 0.1 mM EDTA, 250 mM KCl, 5% glycerol, 2 mM DTT. Particulars: remark: other sources report otherwise.

For test [6], the target named is T4, full-length recombinant human RAD51 (N-terminal 6xHis-tagged) (human, UniProt Q06609 1-339).
T4 construct: RAD51, human, full length; recombinase of 339 amino acids, about 40 kDa as monomer; Forms fibrils (homo-oligomers) without DNA; for MST labelled on the His tag with RED-tris-NTA 2nd Generation dye; also called His-RAD51; 6xHis-RAD51; source: E. coli Rosetta2(DE3) pLysS, pET15b, purified (His-Trap, anion exchange); not shown: His6, N-terminal, kept
T4 sequence (looked up): T1 sequence (Q06609 1-339)
Briefly: MST; RED-tris-NTA-labelled 6xHis-RAD51 constant (25 nM in the methods, 100 nM in the results), 16 concentrations of BRC4 up to 32 µM; apparent Kd bounded by the lowest EC50 (titration regime). Particulars: both partners purified.

Test [7] deals with T4, full-length recombinant human RAD51 …. Briefly: static light scattering + other: dynamic light scattering + MST; midpoint of BRC4-induced RAD51 defibrillation against the BRC4/RAD51 molar ratio, RAD51 6.25 µM (SLS, DLS) or 100 nM (MST). The settings on record: both partners purified.
Test [8] has the same target. Description: static light scattering (CG-MALS) + other: dynamic light scattering; RAD51 constant at 0.25 mg/mL (6.25 µM) with BRC4 or scBRC4 from 0 to 0.19 mg/mL (48 µM); 20 mM HEPES pH 8, 0.1 mM EDTA, 250 mM KCl, 5% glycerol, 2 mM DTT; DLS at 25 °C; step constants kd and kd1 from a defibrillation model fitted to the apparent weight average mass. The settings on record: both partners purified.

Test [9] shares this target. Description: negative-staining TEM with streptavidin-gold labelling; 0.1 mg/mL (2.5 µM) 6xHis-RAD51 with biotinylated BRC4 (non-labelled BRC4 as control) on grids, streptavidin-gold. Particulars: both partners purified.

For `N.N.[Cl][Pt][Cl]` [cisplatin], in test [1] (50 µM cisplatin), the “RAD51 nuclear foci, cisplatin alone” value was “large number of nuclear RAD51 foci”.

Regarding `COc1cccc2c1C(=O)c1c(O)c3c(c(O)c1C2=O)C[C@@](O)(C(=O)CO)C[C@@H]3O[C@H]1C[C@H](N)[C@H](O)[C@H](C)O1` [doxorubicin], the “RAD51 nuclear foci, doxorubicin alone” value in test [1] (200 nM doxorubicin) is listed as “large number of nuclear RAD51 foci”.

On to BRCA2 BRC4 (from UniProt P51587), for which the Kd in the test with RAD51 (Homo sapiens) is 1500 nM.

Turning to “BRCA2: large protein (3418 amino acids) that interacts with RAD51 through eight BRC repeats”, the BRCA2-RAD51 binding affinity result in the test with RAD51 is “nanomolar affinity”.

As to myristoylated BRC4 peptide (BRC4myr), in [2], the homologous recombination (HR) assay in BxPC-3 cells, IC50 of HR inhibition came out at 10 µM; the homologous recombination (HR) assay in BxPC-3 cells, percent HR inhibition at 5, 10 and 30 µM BRC4myr was 85.1%.

As for “scBRC4: BRC4 (35 residues) peptide, carrying a double mutation [F1524A, T1526A] (KEPTLLGAHAASGKKVKIAKESLDKVKNLFDEKEQ)”, in [3], the “apparent weight average mass versus no-interaction prediction” value is “followed the theoretical “no-interaction” prediction”. In [4], the “binding to RAD51 (MST)” value is recorded as “no binding”. In the test with RAD51 fibrils, the “RAD51 fibrils in TEM” value was “the fibrils were still visible”.

B1: full-length recombinant human RAD51 (N-terminal 6xHis-tagged), Q06609 1-339 (natural protein)
chain: T1 sequence (Q06609 1-339)
Regarding B1, the stoichiometry N (protomers per aggregate) in test [5] is 40 and 70.

B2: BRC4 peptide (residues 1517-1551 of BRCA2) (peptide)
peptide: KEPTLLGFHTASGKKVKIAKESLDKVKNLFDEKEQ
notes: BRCA2, fourth BRC repeat, residues 1517-1551, MW 3957.6 Da; also called fourth BRC repeat of BRCA2; source: bought: Thermo Fisher Scientific (synthetic peptide)
In general, stoichiometry N refers to the number of molecules, sites or subunits per partner or assembly. As to B2, the Kd in test [6] is at most 60 nM. Besides, the “stoichiometry N” value in test [7] amounted to 1 BRC4 per RAD51. The “kd (each step of loss of a RAD51 unit from a fibril, from the defibrillation model)” value in [8] came out at 33.7 ± 0.5 dimensionless.

B3: biotinylated BRC4 peptide (peptide)
peptide: B2 peptide
modifications: biotin (position not given)
notes: BRCA2, fourth BRC repeat, residues 1517-1551, as BRC4; also called labelled peptide; source: bought: Thermo Fisher Scientific (synthetic peptide, BRC4 derivative)
Regarding B3, in test [9], the binding result is on record as “binds”.
